Test results reported in patent US20050143287A1.

Tests used:
Test in all cases: cell-based or functional assay
[1] = target: squirrel monkey prokineticin receptor 2 (PKR2) (squirrel monkey)
[2] = target: rhesus monkey prokineticin receptor 1 (PKR1) (rhesus monkey)
[3] = target: chimpanzee prokineticin receptor 2 (PKR2) (chimpanzee (Pan troglodytes))

calcium mobilization (aequorin luminescence) in transiently transfected CHO cells [1] [nM] | calcium mobilization (aequorin luminescence) in transiently transfected CHO cells [2] [nM] | calcium mobilization (aequorin luminescence) in transiently transfected CHO cells [3] [nM] | Substance
10 |  |  | recombinant human PK1 (prokineticin 1) (from UniProt P58294 20-101) (ligand)
 | 10 | 10 | recombinant human PK2 (prokineticin 2) (from UniProt Q9HC23 28-129) (ligand)
